Measurements as given in patent publication US20230144447A1 (published 2023).

T1: recombinant human CD22 protein with Fc segment (staining reagent) (human, UniProt P20273 20-687)
T1 construct: Reagent used for flow cytometry staining of the CAR; also called Fc fragment of a recombinant human CD22 protein; Fc segment of recombinant human CD22 protein; not shown: Fc segment
T1 sequence (looked up): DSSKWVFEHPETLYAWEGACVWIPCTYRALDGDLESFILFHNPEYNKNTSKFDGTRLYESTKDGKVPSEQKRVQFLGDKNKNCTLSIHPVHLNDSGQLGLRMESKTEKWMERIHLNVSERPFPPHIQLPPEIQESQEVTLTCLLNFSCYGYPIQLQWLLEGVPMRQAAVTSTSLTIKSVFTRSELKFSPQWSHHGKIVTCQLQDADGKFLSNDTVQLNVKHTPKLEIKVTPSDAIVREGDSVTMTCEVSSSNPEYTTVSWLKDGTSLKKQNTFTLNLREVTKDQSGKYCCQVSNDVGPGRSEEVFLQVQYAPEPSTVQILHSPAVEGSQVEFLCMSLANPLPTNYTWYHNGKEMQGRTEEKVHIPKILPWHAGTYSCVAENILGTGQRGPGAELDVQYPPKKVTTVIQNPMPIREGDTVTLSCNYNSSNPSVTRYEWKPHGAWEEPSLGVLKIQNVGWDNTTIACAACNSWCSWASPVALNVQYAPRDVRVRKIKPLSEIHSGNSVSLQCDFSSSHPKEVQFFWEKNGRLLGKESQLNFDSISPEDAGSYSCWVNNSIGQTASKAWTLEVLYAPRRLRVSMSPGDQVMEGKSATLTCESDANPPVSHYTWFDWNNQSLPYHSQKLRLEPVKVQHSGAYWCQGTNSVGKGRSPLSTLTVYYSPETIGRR


Target: T1, recombinant human CD22 protein with Fc …
Test: flow cytometry of CAR-T cells stained with recombinant human CD22-Fc protein, with untransduced T cells as control
Method: 0.2×10⁶ of CART-CD22.5, CART-CD22.13 and CART-CD22.14 sample cells cultured to Day 6 in Example 2 (FIG. 2) were taken, and, after staining the Fc segment of recombinant human CD22 protein, the expression level of CAR-CD22 protein on the surface of T cell membranes was analyzed by flow cytometry, with untransduced T cells (NT cells) used as control.

Row | Binder | binding result
1 | CAR-T22.13 chimeric antigen receptor (anti-CD22 scFv from antibody 16F7, CD8 hinge and transmembrane region, 4-1BB, CD3 zeta), on primary human T cells (other, CAR on the membrane of lentivirus-transduced T cells; also called CART-CD22.13; CAR22.13) EVQLVQSGAEVKKPGESLKISCKGSGYNFTSYWIGWVRQMPGKGLEWMGIIYPGDSDTRYSPSFQGQVTISADKSISTAYLQWSSLKASDTAMYYCATPTYYFGSVAFDIWGQGTMVTVSSGGGGSGGGGSGGGGSEIVLTQSPDFQSVTPKEKVTITCRASQSIGSSLHWYQQKPDQSPKLLIKYASQSFSGVPSRFSGSGSGTDFTLTINSLEAEDAAAYYCHQSSSLPYTFGQGTKLEIKFVPVFLPAKPTTTPAPRPPTPAPTIASQPLSLRPEACRPAAGGAVHTRGLDFACDIYIWAPLAGTCGVLLLSLVITLYCKRGRKKLLYIFKQPFMRPVQTTQEEDGCSCRFPEEEEGGCELRVKFSRSADAPAYQQGQNQLYNELNLGRREEYDVLDKRRGRDPEMGGKPRRKNPQEGLYNELQKDKMAEAYSEIGMKGERRRGKGHDGLYQGLSTATKDTYDALHMQALPPR | binds
2 | CAR-T22.14 chimeric antigen receptor (anti-CD22 scFv from antibody 4G6, CD8 hinge and transmembrane region, 4-1BB, CD3 zeta), on primary human T cells (other, CAR on the membrane of lentivirus-transduced T cells; also called CART-CD22.14; CAR22.14) QVQLVQSGAEVKKPGSSVKVSCKPSGDTFSNYAISWVRQAPGQGLEWMGRIIPILGMAIYAPKFQGRVTITADKSTNTAFMDLTSLYFEDTAVYYCARAPTYWGSKDYFDYWGQGTLVTVSSGGGGSGGGGSGGGGSAIQLTQSPSSLSASVGDRVTITCRASQDISSGLAWYQQKPGTAPKLLIYDASSLESGVPSRFSGSGSGTDFTLTISSLQPDDFATYYCQQFNSFPYTFGQGTKLEIKFVPVFLPAKPTTTPAPRPPTPAPTIASQPLSLRPEACRPAAGGAVHTRGLDFACDIYIWAPLAGTCGVLLLSLVITLYCKRGRKKLLYIFKQPFMRPVQTTQEEDGCSCRFPEEEEGGCELRVKFSRSADAPAYQQGQNQLYNELNLGRREEYDVLDKRRGRDPEMGGKPRRKNPQEGLYNELQKDKMAEAYSEIGMKGERRRGKGHDGLYQGLSTATKDTYDALHMQALPPR | binds
